Assay results from publication doi:10.1101/134072.
Several values for one entry are separate records, joined by “and”; a condition that tells them apart may be missing. Identical values can stand only once.

How the values were obtained:
[1] = molecular target: T1, TDP-43 N-terminal domain (TDP-43^NTD), residues 1-80, no tags, Q13148; assay: AUC; conditions: remark: other sources report otherwise
T1 chain: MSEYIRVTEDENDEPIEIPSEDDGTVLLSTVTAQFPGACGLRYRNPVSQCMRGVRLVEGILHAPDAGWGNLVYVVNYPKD

[2] = molecular target: T1, TDP-43 N-terminal domain (TDP-43^NTD), …; assay: SEC; conditions: remark: other sources report otherwise

B1: TDP-43 N-terminal domain (TDP-43^NTD), residues 1-80, no tags, Q13148 1-80 (domain or fragment)
chain: MSEYIRVTEDENDEPIEIPSEDDGTVLLSTVTAQFPGACGLRYRNPVSQCMRGVRLVEGILHAPDAGWGNLVYVVNYPKD
[1]
  percent dimer at 2-5 μM: 30%
  percent tetramer at 20 μM: 10%
  stoichiometry N: 2 and 4
[2]
  stoichiometry N: 2 and 4
